Results from the Human Domainome abundance scans (Beltran et al. 2025).
± gives the uncertainty stated by the source.

B1: PMS1 protein homolog 1, residues 572 to 637; numbered along this chain, P54277 (parent)
chain: KKPMSASALFVQDHRPQFLIENPKTSLEDATLQIEELWKTLSEEEKLKYEEKATKDLERYNSQMKR

Variants of: B1
Assay: abundance fitness (aPCA) (normalised: wild type 0, dead -1); higher = more abundant; growth selection in yeast, the domain comes from the species named
Settings: Homo sapiens

KKPMSASALFVQDHRPQFLIENPKTSLEDATLQIEELWKVLSEEEKLKYEEKATKDLERYNSQMKR [T40V] and KKPMSASALFVQDHRPQFLIENPKTSLEDATLQIEELWKWLSEEEKLKYEEKATKDLERYNSQMKR [T40W] are within error of each other in abundance fitness: -0.239 ± 0.1 for the first, -0.253 ± 0.12 for the second.

First: KKPMSASALFVQDHRPQFLIENPKTSLEDATLQIEELWKTLSEEEKLKYEEKATKDPERYNSQMKR [L57P]
Second: KKPMSASALFVQDHRPQFLIENPKTSLEDATLQIEELWKTLSEEEKLKYEEKATKDWERYNSQMKR [L57W]
The abundance fitness of the first is lower: -0.342 ± 0.091 for the first, -0.103 ± 0.088 for the second.

KKPMSASALFVQDHRPQFLIENPKTSLEDATLQIEELWKTLSEEEKLKYEEKATKDNERYNSQMKR [L57N] and KKPMSASALFVQDHRPQFLIENPKTSLEDATLQIEELWKTRSEEEKLKYEEKATKDLERYNSQMKR [L41R] are within error of each other in abundance fitness: -0.224 ± 0.099 for the first, -0.202 ± 0.058 for the second.

KKPMSASALFVQDHRPQFLIENPKTSLEDATLQIEELWKTPSEEEKLKYEEKATKDLERYNSQMKR [L41P] and KKPMSASALFVQDHRPQFLIENPKTSLEDATLQIEELWKTHSEEEKLKYEEKATKDLERYNSQMKR [L41H] are within error of each other in abundance fitness: -0.622 ± 0.22 for the first, -0.467 ± 0.14 for the second.

KKPMSASALFVQDHRPQFLIENPKTSLEDATLQIEELWKTLSEEEKLKYEEKATWDLERYNSQMKR [K55W] and KKPMSASALFVQDHRPQFLIENPKTSLEDATLQIEELWKTLSEEEKLKYEEKATKDLERYNSQGKR [M64G] are within error of each other in abundance fitness: -0.16 ± 0.089 for the first, -0.103 ± 0.1 for the second.

KKPMSASALFVQDHRPQFLIENPKTSLEDATLQIEELWKTLSEEEKLKYEEKATKDLERYNSQCKR [M64C] and KKPMSASALFVQDHRPQFLIENPKTSLEDATLQIEELWKTLSEEEKLKYEEKATKDLERYNSQLKR [M64L] are within error of each other in abundance fitness: -0.205 ± 0.15 for the first, -0.133 ± 0.062 for the second.

Going from KKPMTASALFVQDHRPQFLIENPKTSLEDATLQIEELWKTLSEEEKLKYEEKATKDLERYNSQMKR [S5T] to KKPMRASALFVQDHRPQFLIENPKTSLEDATLQIEELWKTLSEEEKLKYEEKATKDLERYNSQMKR [S5R], the abundance fitness falls from 0.095 ± 0.077 to -0.293 ± 0.1.

KKPMCASALFVQDHRPQFLIENPKTSLEDATLQIEELWKTLSEEEKLKYEEKATKDLERYNSQMKR [S5C] and KKPMSASALFVQDHRPQFLIENPKTSLEDATLQIEEGWKTLSEEEKLKYEEKATKDLERYNSQMKR [L37G] are within error of each other in abundance fitness: -0.333 ± 0.44 for the first, -0.175 ± 0.082 for the second.

KKPMSASALFVQDHRPQFLIENPKTSLEDATLQIEELWKTLSEEEKLKVEEKATKDLERYNSQMKR [Y49V] and KKPMSASALFVQDHRPQFLIENPKTSLEDATLQIEELWKTLSEEEKLKGEEKATKDLERYNSQMKR [Y49G] are within error of each other in abundance fitness: -0.847 ± 0.083 for the first, -0.761 ± 0.086 for the second.

KKPMSASALFVQDHRPQFLIENPKTSLEDATLQIEELWKTLSEEEKLKYEEKATKDLEHYNSQMKR [R59H] and KKPMSASALFVQDHRPQFLIENPKTSLEDATLQIEELWKTLSEEEKLKYEEKATKDLEWYNSQMKR [R59W] are within error of each other in abundance fitness: -0.085 ± 0.16 for the first, -0.126 ± 0.069 for the second.

KKPMSASALFVQDHRPQFLIENPKTSLEDATLQIEELWKTLSEEEKLKYEEKATKDLERYNSQMKM [R66M] and KPPMSASALFVQDHRPQFLIENPKTSLEDATLQIEELWKTLSEEEKLKYEEKATKDLERYNSQMKR [K2P] are within error of each other in abundance fitness: 0.044 ± 0.14 for the first, -0.201 ± 0.23 for the second.

KKPMSASALFVQDHRPQFLIENPKTSLEDATLQIEELWKTLSEEEKLAYEEKATKDLERYNSQMKR [K48A] and KKPMSASALFVQDHRPQFLIENPKTSLEDATLQIEELWKTLSEEEKLIYEEKATKDLERYNSQMKR [K48I] are within error of each other in abundance fitness: -0.095 ± 0.086 for the first, -0.309 ± 0.15 for the second.

First: KKPMSASALFVQDHRPQFLIENPKTSLEDATLQIEELWKTLLEEEKLKYEEKATKDLERYNSQMKR [S42L]
Second: KKPMSASALFVQDHRPQFLIENPKTSLEDATLQIEELWKTLKEEEKLKYEEKATKDLERYNSQMKR [S42K]
The abundance fitness of the first is lower: -0.801 ± 0.056 for the first, -0.072 ± 0.073 for the second.

KKPMSASALFVQDHRPQFLIENPKTSLEDATLQIEELWKTLSEEEKLKYEEKATKDLERYNSQMPR [K65P] and KKPMSACALFVQDHRPQFLIENPKTSLEDATLQIEELWKTLSEEEKLKYEEKATKDLERYNSQMKR [S7C] are within error of each other in abundance fitness: 0.009 ± 0.13 for the first, -0.28 ± 0.22 for the second.

KKPMSAAALFVQDHRPQFLIENPKTSLEDATLQIEELWKTLSEEEKLKYEEKATKDLERYNSQMKR [S7A] and KKPMSASALFVQDHRDQFLIENPKTSLEDATLQIEELWKTLSEEEKLKYEEKATKDLERYNSQMKR [P16D] are within error of each other in abundance fitness: 0.007 ± 0.096 for the first, 0.118 ± 0.15 for the second.

First: KKPMSASALFVQDHRVQFLIENPKTSLEDATLQIEELWKTLSEEEKLKYEEKATKDLERYNSQMKR [P16V]
Second: KKPMSASALFVQDHRPQFLIENPKTSLEDATLQIEELWKTLSEEEKLKYEEKATKDLERYNSYMKR [Q63Y]
The abundance fitness of the first is lower: -0.47 ± 0.12 for the first, -0.078 ± 0.088 for the second.

KKPMSASALFVQDHRPQFLIENPKTSLEDATLQIEELWKTLSEEEKLKYEEKATKDLERYNSLMKR [Q63L] and KKPMSASALFVQDHRPQFLIENPKTSLEDATLQIEELWKTLSEEEKLKYEEKATKDLERYNSFMKR [Q63F] are within error of each other in abundance fitness: -0.109 ± 0.067 for the first, -0.036 ± 0.4 for the second.

KKPMSASALFVQDHRPQFLIENPKTSLEDATLQIEELWKTLSEEEKLKYEEKATKDLERYNSRMKR [Q63R] and KKPMSASALFVQDHRPQFLIENPKTSLEDATLQIEELWKTLSEEEKLKYEEKATKDLERYNSVMKR [Q63V] are within error of each other in abundance fitness: -0.178 ± 0.081 for the first, -0.113 ± 0.061 for the second.

KKPMSASALFVQDHRPQFLIENPKTSLEDATLQIEELWKTLSEEEKLKYEEKATKDLERYNSMMKR [Q63M] and KKPMSASALFVQDHRPQFLIENPKTSLEDATLQIMELWKTLSEEEKLKYEEKATKDLERYNSQMKR [E35M] are within error of each other in abundance fitness: -0.109 ± 0.12 for the first, -0.038 ± 0.14 for the second.

Compared with KKPMSASALFVQDHRPQFLIENPKTSLEDATLQIEELWKTLSEQEKLKYEEKATKDLERYNSQMKR [E44Q], KKPMSDSALFVQDHRPQFLIENPKTSLEDATLQIEELWKTLSEEEKLKYEEKATKDLERYNSQMKR [A6D] is lower in abundance fitness: -0.142 ± 0.095 for the first, -0.665 ± 0.25 for the second.

KKPTSASALFVQDHRPQFLIENPKTSLEDATLQIEELWKTLSEEEKLKYEEKATKDLERYNSQMKR [M4T] gave an abundance fitness of -0.05 ± 0.096.
